Data on two molecules can be found in patent US20100248359A1 (Chugai, published 2010).

Test [1] addresses T1, full-length human GPC3 (human, UniProt P51654 25-554).
T1 construct: On CHO (DXB11) or SK-HEP-1 (SK-03) transfectants; also used here for the GPC3 on the hepatoma lines HepG2 and HuH-7; also called human glypican 3
The test can be described thus: flow cytometry, antibody at 5 µg/mL, HepG2 cells. A general note: In flow cytometry, cells or beads pass a laser one at a time.

The target of test [2] is T1, full-length human GPC3. As to the kind of experiment: flow cytometry, antibody at 5 µg/mL, HuH-7 cells.
The target in test [3] is T2, soluble form of GPC3 core protein (human, UniProt P51654 25-563).
T2 construct: not shown: His tag added to the C-terminus
T2 sequence (P51654 25-563 S495A/S509A, form in doubt): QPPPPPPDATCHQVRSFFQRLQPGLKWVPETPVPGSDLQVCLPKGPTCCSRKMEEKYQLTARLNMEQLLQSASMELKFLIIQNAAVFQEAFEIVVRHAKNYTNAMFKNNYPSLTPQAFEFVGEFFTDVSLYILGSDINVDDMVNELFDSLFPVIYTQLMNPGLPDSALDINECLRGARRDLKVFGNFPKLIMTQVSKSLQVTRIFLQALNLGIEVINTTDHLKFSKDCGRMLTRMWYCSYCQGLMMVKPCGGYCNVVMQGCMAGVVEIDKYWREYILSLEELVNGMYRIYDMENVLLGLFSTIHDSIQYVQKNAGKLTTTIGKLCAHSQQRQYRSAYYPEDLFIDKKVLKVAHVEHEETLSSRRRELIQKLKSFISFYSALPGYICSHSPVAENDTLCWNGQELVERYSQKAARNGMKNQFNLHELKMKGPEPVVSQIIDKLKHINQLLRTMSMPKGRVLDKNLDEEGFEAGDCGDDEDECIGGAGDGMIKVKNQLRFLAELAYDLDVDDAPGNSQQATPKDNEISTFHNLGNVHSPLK
As to the kind of experiment: ELISA on plate coated with soluble GPC3 core protein.

The target of test [4] is T1, full-length human GPC3. As to the kind of experiment: BIACORE; the form of GPC3 used is not given. Background: In SPR one partner is held on a chip, and binding of the other changes the refractive index at the surface.
The target in test [5] is T3, C-terminal fragment of 30 kDa of the soluble form of GPC3 core protein (human, UniProt P51654 375-563).
T3 construct: the shorter limit is written; also called C-terminal side; band of about 30 kDa; not shown: His tag at the C-terminus
T3 chain: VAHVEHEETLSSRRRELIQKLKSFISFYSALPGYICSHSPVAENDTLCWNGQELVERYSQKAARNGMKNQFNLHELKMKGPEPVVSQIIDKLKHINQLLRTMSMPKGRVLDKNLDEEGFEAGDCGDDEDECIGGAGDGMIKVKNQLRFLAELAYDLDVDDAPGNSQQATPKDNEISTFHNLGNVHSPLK
The test can be described thus: Western blotting of soluble GPC3 core protein after reducing SDS-PAGE.

In test [6] the target is T2, soluble form of GPC3 core protein. As to the kind of experiment: competitive ELISA on coated soluble GPC3 core protein; labelled competitor biotin-M1E7.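 Note: Biotin-labelled antibody added as 10 µL at 10 µg/mL for 1 h.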 Background: In an ELISA, binding on a coated surface is turned into a signal by an enzyme label.
For test [7] the target is unchanged. As to the kind of experiment: competitive ELISA on coated soluble GPC3 core protein; labelled competitor biotin-M5B9.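 Note: Biotin-labelled antibody added as 10 µL at 10 µg/mL for 1 h.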
Test [8] shares this target. As to the kind of experiment: competitive ELISA on coated soluble GPC3 core protein; labelled competitor biotin-M6B1.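 Note: Biotin-labelled antibody added as 10 µL at 10 µg/mL for 1 h.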
The target is the same in test [9]. The test can be described thus: competitive ELISA on coated soluble GPC3 core protein; labelled competitor biotin-L9G11.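 Note: Biotin-labelled antibody added as 10 µL at 10 µg/mL for 1 h.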
For test [10] the target is unchanged. As to the kind of experiment: competitive ELISA on coated soluble GPC3 core protein; labelled competitor biotin-M10D2.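 Note: Biotin-labelled antibody added as 10 µL at 10 µg/mL for 1 h.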
For test [11] the target is unchanged. The test can be described thus: competitive ELISA on coated soluble GPC3 core protein; labelled competitor biotin-M11F1.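 Note: Biotin-labelled antibody added as 10 µL at 10 µg/mL for 1 h.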
For test [12] the target is unchanged. As to the kind of experiment: competitive ELISA on coated soluble GPC3 core protein; labelled competitor biotin-M18D4.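 Note: Biotin-labelled antibody added as 10 µL at 10 µg/mL for 1 h.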
Test [13] has the same target. As to the kind of experiment: competitive ELISA on coated soluble GPC3 core protein; labelled competitor biotin-M3C11.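 Note: Biotin-labelled antibody added as 10 µL at 10 µg/mL for 1 h.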
Test [14] has as its target T1, full-length human GPC3. As to the kind of experiment: flow cytometry, antibody at 5 µg/mL, CHO cells expressing human GPC3 (column CHO/human GPC3).
For test [15], the target named is T4, GC-1 (GST fusion of GPC3 Ser495 to Lys563) (human, UniProt P51654 495-563).
T4 construct: Made in E. coli DH5alpha; not shown: GST as encoded by pGEX-4T-3 (Amersham), N-terminal to the GPC3 peptide
T4 sequence: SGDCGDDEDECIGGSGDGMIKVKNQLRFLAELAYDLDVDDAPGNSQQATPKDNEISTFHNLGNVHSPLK
The test can be described thus: Western blotting of GST-fusion proteins, reducing SDS-PAGE.

Test [16] deals with T5, GC-2 (GST fusion of GPC3 Gly510 to Lys563) (human, UniProt P51654 510-563).
T5 construct: not shown: GST as encoded by pGEX-4T-3 (Amersham), N-terminal to the GPC3 peptide
T5 sequence: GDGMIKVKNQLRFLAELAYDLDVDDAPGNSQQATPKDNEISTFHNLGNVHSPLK
The description is as above.

In test [17] the target is T6, GC-3 (GST fusion of GPC3 Ala524 to Lys563) (human, UniProt P51654 524-563).
T6 construct: not shown: GST as encoded by pGEX-4T-3 (Amersham), N-terminal to the GPC3 peptide
T6 chain: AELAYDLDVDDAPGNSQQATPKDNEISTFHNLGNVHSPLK
Described as above.

T1 sequence (P51654 25-554 limits assumed): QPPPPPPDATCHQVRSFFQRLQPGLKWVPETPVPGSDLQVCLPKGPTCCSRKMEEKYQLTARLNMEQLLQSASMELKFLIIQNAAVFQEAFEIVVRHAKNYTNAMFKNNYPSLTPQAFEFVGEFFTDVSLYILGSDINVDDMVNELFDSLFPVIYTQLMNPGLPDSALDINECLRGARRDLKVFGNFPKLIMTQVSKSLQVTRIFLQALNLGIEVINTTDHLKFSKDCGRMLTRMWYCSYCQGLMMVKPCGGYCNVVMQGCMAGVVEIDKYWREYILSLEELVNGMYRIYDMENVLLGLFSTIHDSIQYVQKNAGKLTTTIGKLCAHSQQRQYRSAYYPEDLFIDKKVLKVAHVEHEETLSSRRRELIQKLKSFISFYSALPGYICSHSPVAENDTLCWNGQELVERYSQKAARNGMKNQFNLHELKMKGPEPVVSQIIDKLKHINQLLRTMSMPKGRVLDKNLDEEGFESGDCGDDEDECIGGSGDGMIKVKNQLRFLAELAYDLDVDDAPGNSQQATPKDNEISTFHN

B1: L9G11 (antibody, V domains shown)
VH: QVQLQQPGAELVKPGASVKLSCKASGYTFTSYWMHWVKQRPGQGLEWIGTIDPSDSETHYNLQFKDTATLTVDKSSSTAYMQLSSLTSEDSAVYYCIRGAFYSSYSYWAWFAYWGQGTLVTVSA
VL: DIVLTQSPTSLAVSLGQSVTISCRASESVEYYGTSLMQWYQQKPGQPPKLLIYGASNVESGVPARFSGSGSGTDFSLNIHPVEEDDIAMYFCQQSRKVPYTFGSGTKLEIK
notes: Mouse monoclonal from hybridoma
What is called EC50 is the concentration at which the effect is half-maximal. Broadly, the Kd is the constant that tells how readily two partners part at equilibrium. Lower therefore signals tighter binding. The koff is a measure of how fast the partners let go of each other. High values mean fast dissociation, low ones slow dissociation. For orientation: kon means the second-order rate constant of association. Low values mean slow association, high ones fast association. B1: the figures for the “FACS X-mode value of the histogram” value in the test with full-length human GPC3 [1], with full-length human GPC3 [2] and with full-length human GPC3 [14] were 26, 4 and 29, respectively. In test [3], this molecule came in with an EC50 of 0.62 nM. This molecule also gave a dissociation constant (Kd) in the test with full-length human GPC3 [4] of 10.7 nM. This molecule yielded a koff with full-length human GPC3 [4] of 0.0014 s⁻¹. This molecule had a kon in the test with full-length human GPC3 [4] of 130000 M⁻¹ s⁻¹. Further, in test [5], the binding result is “no binding”. The “Inhibition of the binding of indicated biotin-Mab to sGPC3 core (%)” value in test [6] was -4.8%; in test [7] it was 6.4%; in [8], 10.1%; in test [9], 92.2%; in test [10], 1.2%; in test [11], 6%. The “Inhibition of the binding of indicated biotin-Mab to sGPC3 core (%)” value in [12] came out at 15.7%; in test [13] it was 2.1%.

B2: M3B8 (antibody, V domains shown)
VH: QVTLKESGPGILQPSQTLSLTCSFSGFSLSTYGMGVGWIRQPSGMGLEWLANIWWYDAKYYNSDLKSRLTISKDTSNNQVFLKISSVDTSDTATYYCAQMGLAWFAYWGQGTLVTVSA
VL: DIKMTQSPSSMYASLGERVTITCKASQDINNYLSWFQQKPGKSPKTLIYRANRLVDGVPSRFSGSGSGQDYSLTISSLEYEDMGINYCLQCDEFPPWTFGGGTKLEIK
notes: as for B1
Take B2: the binding result in test [15], in test [16] and in test [17] was “binds” each time.
